Measurements from patent US20260022175A1 (Chugai, published 2026).

T1: human FcγRIIa R allotype extracellular domain with C-terminal His-tag (human, UniProt P12318 34-217)
T1 construct: extracellular domain; also called hFcγR IIa R
T1 sequence (looked up): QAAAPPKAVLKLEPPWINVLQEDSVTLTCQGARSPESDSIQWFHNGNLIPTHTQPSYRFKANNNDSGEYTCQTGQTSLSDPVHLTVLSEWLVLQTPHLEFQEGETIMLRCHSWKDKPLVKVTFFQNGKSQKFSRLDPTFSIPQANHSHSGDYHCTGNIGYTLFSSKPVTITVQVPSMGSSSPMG

T2: human FcγRIIa H allotype extracellular domain with C-terminal His-tag (human, UniProt P12318 34-217)
T2 construct: extracellular domain; also called hFcγR IIa H
T2 sequence (looked up): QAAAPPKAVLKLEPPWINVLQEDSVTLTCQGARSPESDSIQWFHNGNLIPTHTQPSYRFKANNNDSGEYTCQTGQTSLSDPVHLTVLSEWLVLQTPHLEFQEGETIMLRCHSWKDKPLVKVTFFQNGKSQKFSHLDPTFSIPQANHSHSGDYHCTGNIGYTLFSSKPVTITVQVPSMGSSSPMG

T3: human FcγRIIb extracellular domain with C-terminal His-tag (human, UniProt P31994 43-217)
T3 construct: extracellular domain; also called hFcγR IIb
T3 sequence (looked up): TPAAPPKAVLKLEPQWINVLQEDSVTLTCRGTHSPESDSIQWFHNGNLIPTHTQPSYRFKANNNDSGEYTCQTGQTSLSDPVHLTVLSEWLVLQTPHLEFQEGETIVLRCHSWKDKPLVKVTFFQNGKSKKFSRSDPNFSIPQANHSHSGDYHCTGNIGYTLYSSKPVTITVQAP


Tests used:
[1] = biological target: T4, human FcγRIa extracellular domain with C-terminal His-tag (human, UniProt P12314 16-292); experiment: SPR Biacore T200, Ab captured via Fab-lambda, pH 7.4, 25C;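 also: antibodies captured on a streptavidin chip carrying biotinylated anti-Fab-lambda, with each FcγR injected as analyte in phosphate buffer. KD fitted by 1:1 Langmuir or steady-state model depending on receptor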
T4 construct: extracellular domain; also called hFcγR Ia; hFcγRIa
T4 sequence (P12314 16-292): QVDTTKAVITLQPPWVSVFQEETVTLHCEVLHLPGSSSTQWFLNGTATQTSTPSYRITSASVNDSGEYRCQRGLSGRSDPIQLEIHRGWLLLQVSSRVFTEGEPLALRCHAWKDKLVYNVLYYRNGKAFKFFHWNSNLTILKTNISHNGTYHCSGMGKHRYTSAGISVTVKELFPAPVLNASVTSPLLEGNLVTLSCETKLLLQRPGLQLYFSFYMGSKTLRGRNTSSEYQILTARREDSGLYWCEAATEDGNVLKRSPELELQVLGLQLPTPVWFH
Experimental: (§1) The interaction between the generated antibodies and human FcγRs was analyzed by the following method using Biacore T200. 50 mM Na-Phosphate, 150 mM NaCl, 0.05% Tween20 (pH 7.4) was used as the running buffer, and the assay was performed at 25° C. For the sensor chips, Series S SA (GE Healthcare) chips onto which CaptureSelect Human Fab-lambda Kinetics Biotin Conjugate (Thermo Fisher Scientific) was immobilized were used. The antibodies of interest were captured onto these chips and each FcγR diluted in the running buffer was allowed to interact with them. Chips were regenerated with 10 mM Glycine-HCl (pH 1.5) and 25 mM NaOH, and assay was performed by repeatedly capturing antibodies. The dissociation constants KD (mol/L) for FcγRs of each antibody were calculated using Biacore T200 Evaluation Software 2.0, using the 1:1 Langmuir binding model for FcγRIa and FcγRIIIa and the steady state affinity model for FcγRIIa. For FcγRIIb, the binding amount of FcγRIIb per unit amount of antibody was calculated by correcting the binding amount of FcγRIIb obtained from the sensorgram obtained by the measurement with the amount of antibody captured onto the chip surface.

[2] = biological target: T1, human FcγRIIa R allotype extracellular …; experiment: as above
Experimental: as §1

[3] = biological target: T2, human FcγRIIa H allotype extracellular …; experiment: as above
Experimental: as §1

[4] = biological target: T5, human FcγRIIIa F allotype extracellular domain with C-terminal His-tag (human, UniProt P08637 17-208); experiment: as above
T5 construct: extracellular domain; also called hFcγR IIIa F
T5 sequence (P08637 17-208): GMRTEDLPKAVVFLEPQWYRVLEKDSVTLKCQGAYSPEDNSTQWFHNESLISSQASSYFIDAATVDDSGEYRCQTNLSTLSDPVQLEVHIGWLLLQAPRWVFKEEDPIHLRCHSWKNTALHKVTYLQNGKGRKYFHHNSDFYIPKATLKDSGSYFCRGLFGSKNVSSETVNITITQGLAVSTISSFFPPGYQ
Experimental: as §1

[5] = biological target: T6, human FcγRIIIa V allotype extracellular domain with C-terminal His-tag (human, UniProt P08637 17-208); experiment: as above
T6 construct: extracellular domain; also called hFcγR IIIa V
T6 sequence (P08637 17-208 F176V): as the sequence (P08637 17-208) above, with F160V counted along it
Experimental: as §1

[6] = biological target: T3, human FcγRIIb extracellular domain with …; experiment: SPR; FcγRIIb at 1000 nM, bound amount per unit captured Ab
[7] = biological target: T4, human FcγRIa extracellular domain with …; experiment: SPR; KD of 04H1637-G1m/04L1610-lam1 divided by KD of variant;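 also: biacore T200 SPR at 25 °C, antibodies captured on anti-Fab-lambda SA chip with receptor as analyte, running buffer pH 7.4 for FcγRs and pH 6.0 for FcRn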
Experimental: as §1
(§2) The interaction between the generated antibodies and human FcRn was analyzed by the following method using Biacore T200. 50 mM Na-Phosphate, 150 mM NaCl, 0.05% Tween20 (pH 6.0) was used as the running buffer, and the assay was performed at 25° C. For the sensor chip, Series S SA (GE Healthcare) chips onto which CaptureSelect Human Fab-lambda Kinetics Biotin Conjugate (Thermo Fisher Scientific) was immobilized were used. The antibodies of interest were captured onto these chips and FcRn diluted in the running buffer was allowed to interact with them. Chips were regenerated with 10 mM Glycine-HCl (pH 1.5) and 25 mM NaOH, and assay was performed by repeatedly capturing antibodies. The dissociation constant for FcRn of each antibody was calculated using the steady state model, using Biacore T200 Evaluation Software 2.0.

[8] = biological target: T1, human FcγRIIa R allotype extracellular …; experiment: as above
Experimental: as §1, §2

[9] = biological target: T2, human FcγRIIa H allotype extracellular …; experiment: as above
Experimental: as §1, §2

[10] = biological target: T5, human FcγRIIIa F allotype extracellular …; experiment: as above
Experimental: as §1, §2

[11] = biological target: T6, human FcγRIIIa V allotype extracellular …; experiment: as above
Experimental: as §1, §2

[12] = biological target: T3, human FcγRIIb extracellular domain with …; experiment: SPR; binding amount divided by that of 04H1637-G1m/04L1610-lam1

| Kd [1] [nM] | Kd [2] [nM] | Kd [3] [nM] | Kd [4] [nM] | Kd [5] [nM] | Binding amount [6] | Relative value to KD between G1m and hFcγRs [7] | Relative value to KD between G1m and hFcγRs [8] | Relative value to KD between G1m and hFcγRs [9] | Relative value to KD between G1m and hFcγRs [10] | Relative value to KD between G1m and hFcγRs [11] | Relative binding amount [12] | Binder |
| --- | --- | --- | --- | --- | --- | --- | --- | --- | --- | --- | --- | --- |
| 0.04 | 1200 | 410 | 3.4 | 1.9 | 0.007 | 1.2 | 1.6 | 3.6 | 406 | 126 | 0.9 | 04H1637-Kn125/04L1610-lam1//04H1637-Hl076/04L1610-lam1 (antibody, human IgG1, lambda, Heterodimerized antibody, Fc variant of WO 2013/002362; also called 04H1637-Kn125/04L1610-lam1//04H1637-H1076/04L1610-lam1) heavy 1: QVQLVESGGGLVKPGGSLRLSCAASGFTFSSKTMNWVRQAPGKGLEWVSSISTQSHYIYYAESVRGRFTISRDNAKNSLYLQMNSLRAEDTAVYYCARYGKREDMLWVFDYWGQGTLVTVSSASTKGPSVFPLAPSSKSTSGGTAALGCLVKDYFPEPVTVSWNSGALTSGVHTFPAVLQSSGLYSLSSVVTVPSSSLGTQTYICNVNHKPSNTKVDKKVEPKSCDKTHTCPPCPAPEYQWGPMVFLFPPKPKDTLMISRTPEVTCVVVDVSDEEPEVKFNWYVDGVEVHNAKTKPREEQYNATYRVVSVLTVLHQDWLNGKEYKCKVSNKALPAPIEKTISKAKGQPREPQVCTLPPSRDELTKNQVSLWCLVKGFYPSDIAVEWESNGQPENNYKTTPPVLDSDGSFFLYSKLTVDKSRWQQGNVFSCSVMHEALHNHYTQKSLSLSP heavy 2: QVQLVESGGGLVKPGGSLRLSCAASGFTFSSKTMNWVRQAPGKGLEWVSSISTQSHYIYYAESVRGRFTISRDNAKNSLYLQMNSLRAEDTAVYYCARYGKREDMLWVFDYWGQGTLVTVSSASTKGPSVFPLAPSSKSTSGGTAALGCLVKDYFPEPVTVSWNSGALTSGVHTFPAVLQSSGLYSLSSVVTVPSSSLGTQTYICNVNHKPSNTKVDKKVEPKSCDKTHTCPPCPAPELLGGPSVFLFPPKPKDTLMISRTPEVTCVVVDVSHEEPEVKFNWYVDGVEVHNAKTKPREEQYNSTYRVVSVLTVLHQDWLNGKEYKCKVSNDALPMPIEETISKAKGQPREPQVYTLPPSRCELTKNQVSLSCAVKGFYPSDIAVEWESNGQPENNYKTTPPVLDSDGSFFLVSKLTVDKSRWQQGNVFSCSVMHEALHNHYTQKSLSLSP light: QSALTQPPSASGSPGQSVTISCEGPSTGVGDYNWVHWYQQHPGKAPKLMIYFTSKKPSGVPDRFSGSKSGNTASLTVSGLQAEDEADYYCQTYAAPLGPMFGGGTKLTVLGQPKAAPSVTLFPPSSEELQANKATLVCLISDFYPGAVTVAWKADSSPVKAGVETTTPSKQSNNKYAASSYLSLTPEQWKSHRSYSCQVTHEGSTVEKTVAPTECS |
| 0.076 | 110 | 39 | 3.6 | 1.8 | 0.03 | 0.6 | 18.7 | 37.5 | 382 | 131 | 3.7 | 04H1637-Kn462/04L1610-lam1//04H1637-Hl445/04L1610-lam1 (antibody, human IgG1, lambda, Heterodimerized antibody; also called 04H1637-Kn462/04L1610-lam1//04H1637-H1445/04L1610-lam1) heavy 1: QVQLVESGGGLVKPGGSLRLSCAASGFTFSSKTMNWVRQAPGKGLEWVSSISTQSHYIYYAESVRGRFTISRDNAKNSLYLQMNSLRAEDTAVYYCARYGKREDMLWVFDYWGQGTLVTVSSASTKGPSVFPLAPSSKSTSGGTAALGCLVKDYFPEPVTVSWNSGALTSGVHTFPAVLQSSGLYSLSSVVTVPSSSLGTQTYICNVNHKPSNTKVDKKVEPKSCDKTHTCPPCPAPEFQWGPMVFLFPPKPKDVLMISRTPEVTCVVVDVSDEEPEVKFNWYVDGVEVHNAKTKPREEQYNATYRVVSVLPVLHQDWLNGKEYKCKVSNDALPAPIEKTISKAKGQPREPQVCTLPPSRDELTKNQVSLWCLVKGFYPSDIAVEWESNGQPENNYKTTPPVLDSDGSFFLYSKLTVDKSRWQQGNVFSCSVMHEALHNHYTQKSLSLSP heavy 2: QVQLVESGGGLVKPGGSLRLSCAASGFTFSSKTMNWVRQAPGKGLEWVSSISTQSHYIYYAESVRGRFTISRDNAKNSLYLQMNSLRAEDTAVYYCARYGKREDMLWVFDYWGQGTLVTVSSASTKGPSVFPLAPSSKSTSGGTAALGCLVKDYFPEPVTVSWNSGALTSGVHTFPAVLQSSGLYSLSSVVTVPSSSLGTQTYICNVNHKPSNTKVDKKVEPKSCDKTHTCPPCPAPELLAGPSVFLFPPKPKDVLMISRTPEVTCVVVDVSHEEPEVKFNWYVDGVEVHNAKTKPREEQYNATYRVVSVLPVLHQDWLNGKEYKCKVSNDALPKPDEETISKAKGQPREPQVYTLPPSRCELTKNQVSLSCAVKGFYPSDIAVEWESNGQPENNYKTTPPVLDSDGSFFLVSKLTVDKSRWQQGNVFSCSVMHEALHNHYTQKSLSLSP light: QSALTQPPSASGSPGQSVTISCEGPSTGVGDYNWVHWYQQHPGKAPKLMIYFTSKKPSGVPDRFSGSKSGNTASLTVSGLQAEDEADYYCQTYAAPLGPMFGGGTKLTVLGQPKAAPSVTLFPPSSEELQANKATLVCLISDFYPGAVTVAWKADSSPVKAGVETTTPSKQSNNKYAASSYLSLTPEQWKSHRSYSCQVTHEGSTVEKTVAPTECS |
| 0.042 | 190 | 130 | 2.2 | 1.1 | 0.025 | 1.2 | 10.7 | 11.1 | 616 | 226 | 3.1 | 04H1637-Kn461/04L1610-lam1//04H1637-Hl443/04L1610-lam1 (antibody, human IgG1, lambda, Heterodimerized antibody; also called 04H1637-Kn461/04L1610-lam1//04H1637-H1443/04L1610-lam1) heavy 1: QVQLVESGGGLVKPGGSLRLSCAASGFTFSSKTMNWVRQAPGKGLEWVSSISTQSHYIYYAESVRGRFTISRDNAKNSLYLQMNSLRAEDTAVYYCARYGKREDMLWVFDYWGQGTLVTVSSASTKGPSVFPLAPSSKSTSGGTAALGCLVKDYFPEPVTVSWNSGALTSGVHTFPAVLQSSGLYSLSSVVTVPSSSLGTQTYICNVNHKPSNTKVDKKVEPKSCDKTHTCPPCPAPEFQWGPMVFLFPPKPKDVLMISRTPEVTCVVVDVSDEEPEVKFNWYVDGVEVHNAKTKPREEQYNATYRVVSVLPVLHQDWLNGKEYKCKVSNDALPAPEEKTISKAKGQPREPQVCTLPPSRDELTKNQVSLWCLVKGFYPSDIAVEWESNGQPENNYKTTPPVLDSDGSFFLYSKLTVDKSRWQQGNVFSCSVMHEALHNHYTQKSLSLSP heavy 2: QVQLVESGGGLVKPGGSLRLSCAASGFTFSSKTMNWVRQAPGKGLEWVSSISTQSHYIYYAESVRGRFTISRDNAKNSLYLQMNSLRAEDTAVYYCARYGKREDMLWVFDYWGQGTLVTVSSASTKGPSVFPLAPSSKSTSGGTAALGCLVKDYFPEPVTVSWNSGALTSGVHTFPAVLQSSGLYSLSSVVTVPSSSLGTQTYICNVNHKPSNTKVDKKVEPKSCDKTHTCPPCPAPELLAGPSVFLFPPKPKDVLMISRTPEVTCVVVDVSHEEPEVKFNWYVDGVEVHNAKTKPREEQYNATYRVVSVLPVLHQDWLNGKEYKCKVSNDALPAPEEETISKAKGQPREPQVYTLPPSRCELTKNQVSLSCAVKGFYPSDIAVEWESNGQPENNYKTTPPVLDSDGSFFLVSKLTVDKSRWQQGNVFSCSVMHEALHNHYTQKSLSLSP light: QSALTQPPSASGSPGQSVTISCEGPSTGVGDYNWVHWYQQHPGKAPKLMIYFTSKKPSGVPDRFSGSKSGNTASLTVSGLQAEDEADYYCQTYAAPLGPMFGGGTKLTVLGQPKAAPSVTLFPPSSEELQANKATLVCLISDFYPGAVTVAWKADSSPVKAGVETTTPSKQSNNKYAASSYLSLTPEQWKSHRSYSCQVTHEGSTVEKTVAPTECS |
